Assay results published in patent publication US20120171210A1, “METHODS AND COMPOSITIONS FOR INHIBITING C-MET DIMERIZATION AND ACTIVATION” (Genentech, Inc., priority 2003, published 2012).

How the values were obtained:
[1] = system: recombinant EC-Met and Sema domain proteins; test: Coimmunoprecipitation with recombinant EC-Met and Sema domain proteins; format: binding; conditions: data not shown
[2] = target: T1, Met extracellular domain deletion mutants (EC-WT, ΔS, ΔP, ΔIPT3, TM) (Homo sapiens, UniProt P08581); test: Co-immunoprecipitation of HGF / scHGF with V5/His-tagged Met deletion mutants; format: binding; conditions: lysates of transfected 293 cells incubated with 5 μg HGF or scHGF, HGF α chain immunoblot
T1 construct: Sub-domain deletions of the Met extracellular domain were made from the N-terminus and tagged after the TM region with V5/His; expressed in transfected cells; host or cells: 293 cells (lysates)
T1 sequence (P08581 308-959 limits assumed, stated change not applied, one chain of several): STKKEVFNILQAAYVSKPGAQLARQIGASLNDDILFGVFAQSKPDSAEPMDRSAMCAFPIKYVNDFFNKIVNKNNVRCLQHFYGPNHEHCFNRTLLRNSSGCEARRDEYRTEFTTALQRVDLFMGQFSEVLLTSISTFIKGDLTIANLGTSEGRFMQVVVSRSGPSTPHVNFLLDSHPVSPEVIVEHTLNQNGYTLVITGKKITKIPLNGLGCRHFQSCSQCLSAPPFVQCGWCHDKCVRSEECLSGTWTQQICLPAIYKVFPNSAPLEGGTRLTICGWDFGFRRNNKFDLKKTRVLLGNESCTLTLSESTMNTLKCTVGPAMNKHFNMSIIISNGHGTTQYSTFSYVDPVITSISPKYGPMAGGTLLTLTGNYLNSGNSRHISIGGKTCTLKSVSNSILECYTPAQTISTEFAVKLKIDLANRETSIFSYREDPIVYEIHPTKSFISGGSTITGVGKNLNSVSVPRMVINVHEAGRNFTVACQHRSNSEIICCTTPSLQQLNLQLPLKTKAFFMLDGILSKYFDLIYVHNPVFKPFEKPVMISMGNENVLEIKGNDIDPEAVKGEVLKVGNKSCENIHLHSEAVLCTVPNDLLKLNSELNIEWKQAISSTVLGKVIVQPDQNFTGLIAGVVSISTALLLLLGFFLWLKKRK
From the text: Extracellular sub-domain deletions of c-Met were constructed using conventional PCR methods. N-terminal primers containing the start of Sema, PSI, first IPT, or fourth IPT domains flanked by a KpnI site were paired with a C-terminal primer up to Met residue 959 flanked by a StuI site. c-Met was used as template and the PCR fragments for each clone were inserted into pCR-Blunt II-TOPO vector using the Zero Blunt TOPO PCR cloning kit (Invitrogen) according to manufacturer's instructions. The clones were confirmed by DNA sequencing. The constructs were then subcloned into pcDNA3.1 V5/His vector (Invitrogen) via KpnI and EcoRV to add a tag at the C-terminus. The signal peptide of Met was added via the HindIII and KpnI sites at the N-terminus of each clone. Each clone was digested with HindIII and EcoRV and subcloned into pRK5TKneo vector via HindIII and PmeI. For EC-WT Flag and EC-WT V5/His clones, an N-terminal primer containing a HindIII site was paired with a C-terminal primer up to Met residue 595 flanked by a StuI site. EC-WT V5/His was subcloned via HindIII/StuI into the HindIII/EcoRV sites of pcDNA3.1 V5/His, and then subcloned into pRK5TKneo as described above. For EC-WT Flag, the PCR fragment was ligated to pCR-Blunt II-TOPO vector. […]
Cell lines were obtained from American Type Culture Collection (ATCC). […] Proteins were detected by enhanced chemiluminescence (ECL-Plus, Amersham). […]

H441 cells = test: Scrape assay (Met mediated cell motility); format: cell-based, Human; conditions: H441, 100 ng/ml HGF, serum-free
Protocol: H441 cells were seeded at a density of 4.5×10^4 cells/well in a 96-well plate with 10% FBS in 50:50 DMEM/F12. The next day, a single scrape was made in the confluent monolayer in each well as described previously (Lorenzato et al., 2002). The cells were then incubated with media containing 0.5% BSA and treated with mock, 10 μg/ml 5D5, 10 μg/ml Sema, or 100 ng/ml HGF. The scrape was monitored and photographed daily. Representative results are shown for Day 2.
H441 cells were used in a scrape assay as a measure of Met mediated cell motility (Lorenzato et al., 2002). H441 cells grown to high density were scraped in each well on day 0 and maintained in serum-free media containing 0.5% BSA for the duration of the experiment (FIG. 6). Cells were either treated with 10 μg/ml rSema or 5D5 or 100 ng/ml HGF as a positive control or mock treated. […] These observations were consistent in four separate experiments.
To examine the effect of rSema on cell motility in the presence of ligand, cells were treated with 0, 0.1, 0.5, or 5 μg/ml rSema plus 20 ng/ml HGF. Cells treated with HGF alone closed the gap completely by Day 1.

Met [3] = target: T2, Met (Homo sapiens, UniProt P08581); conditions: Lokker et al., 1992; cited from earlier work
Target sequence in this assay (P08581 25-1390): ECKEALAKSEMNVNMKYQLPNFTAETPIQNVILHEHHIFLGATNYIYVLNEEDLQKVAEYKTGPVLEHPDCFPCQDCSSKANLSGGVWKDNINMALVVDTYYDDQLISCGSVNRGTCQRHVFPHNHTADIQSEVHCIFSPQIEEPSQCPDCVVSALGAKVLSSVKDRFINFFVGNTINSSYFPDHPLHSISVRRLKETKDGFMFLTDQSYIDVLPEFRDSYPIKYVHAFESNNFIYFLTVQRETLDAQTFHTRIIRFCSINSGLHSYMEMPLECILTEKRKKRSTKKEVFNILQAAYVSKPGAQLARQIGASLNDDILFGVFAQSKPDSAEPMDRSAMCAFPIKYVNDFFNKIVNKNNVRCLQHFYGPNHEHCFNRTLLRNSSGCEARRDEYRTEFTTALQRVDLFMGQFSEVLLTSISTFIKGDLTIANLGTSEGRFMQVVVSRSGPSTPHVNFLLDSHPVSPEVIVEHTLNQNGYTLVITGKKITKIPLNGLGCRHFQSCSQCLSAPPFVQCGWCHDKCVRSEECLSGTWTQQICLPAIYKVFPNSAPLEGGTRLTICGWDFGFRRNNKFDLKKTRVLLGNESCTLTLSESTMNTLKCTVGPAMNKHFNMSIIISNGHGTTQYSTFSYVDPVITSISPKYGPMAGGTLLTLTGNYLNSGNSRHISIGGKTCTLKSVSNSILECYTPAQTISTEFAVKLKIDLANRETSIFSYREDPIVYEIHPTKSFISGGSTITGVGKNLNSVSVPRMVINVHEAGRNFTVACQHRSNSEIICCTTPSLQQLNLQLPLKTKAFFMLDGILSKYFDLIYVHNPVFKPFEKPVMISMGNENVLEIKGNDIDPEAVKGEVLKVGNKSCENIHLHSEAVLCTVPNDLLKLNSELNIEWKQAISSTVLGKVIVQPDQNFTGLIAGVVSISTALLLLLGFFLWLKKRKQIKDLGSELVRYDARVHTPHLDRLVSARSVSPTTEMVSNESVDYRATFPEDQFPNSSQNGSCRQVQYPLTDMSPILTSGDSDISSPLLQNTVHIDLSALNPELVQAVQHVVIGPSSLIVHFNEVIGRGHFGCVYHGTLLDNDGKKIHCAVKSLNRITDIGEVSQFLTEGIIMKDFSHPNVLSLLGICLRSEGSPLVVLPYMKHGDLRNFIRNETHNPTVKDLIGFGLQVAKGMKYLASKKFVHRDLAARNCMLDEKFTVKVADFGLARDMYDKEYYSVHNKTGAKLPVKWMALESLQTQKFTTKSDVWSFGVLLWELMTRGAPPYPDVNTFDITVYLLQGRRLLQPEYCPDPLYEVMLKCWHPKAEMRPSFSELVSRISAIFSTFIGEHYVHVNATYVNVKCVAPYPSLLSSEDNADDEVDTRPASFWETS

Met [4] = target: T2, Met; test: Met tyrosine phosphorylation in A549 cells (immunoprecipitation / phosphotyrosine immunoblot); format: cell-based; design: endogenous in cells; host or cells: A549 (lung carcinoma); conditions: A549 cells transfected with Met deletion mutants, vs mock
Protocol: (§1) Cell lines were obtained from American Type Culture Collection (ATCC). 293 cells were maintained in DMEM supplemented with 10% FBS (Sigma), penicillin/streptomycin (GIBCO), and glutamine A549, H441, and MDA-MB-435 cells were maintained in 50:50 DMEM/F12 (Cellgro) supplemented with 10% FBS, penicillin/streptomycin, and glutamine Cells were transfected with 1-12 μg of the indicated constructs using Lipofectamine 2000 (Invitrogen) according to manufacturer's instructions. Twenty-four hrs later cells were harvested with 1% NP40 lysis buffer containing Complete protease inhibitor cocktail tablet and phosphatase inhibitor cocktail 2 (Roche and Sigma, respectively). For Met tyrosine phosphorylation and MAPK phosphorylation studies, cells were serum-starved for 2 hr with 0.5% BSA. Cells treated with 10 μg/ml anti-Met 5D5-Fab or rSema were incubated for an additional 1 hr prior to lysis. Cell debris was centrifuged and the supernatant was precleared with Protein A Sepharose (Sigma) or Protein G-Plus agarose beads (Santa Cruz) for 1 hr. 500 μg of lysates was then immunoprecipitated with 10 μg 5D5 antibody (Genentech) or 35 ul of Met (C-28) agarose conjugate (Santa Cruz) overnight at 4° C. with rotation. For HGF binding studies, 500 μg of lysates were incubated with 5 μg scHGF or HGF followed by immunoprecipitation with 1 μg of V5 antibody. Protein A or G beads were added for an additional 2 hrs before immunoprecipitates were washed 3 times with 1% NP40 lysis buffer. After addition of 2× sample buffer with 10 mM DTT, the samples were run on 4-12% Tris-glycine gels (Invitrogen). […] Proteins were detected by enhanced chemiluminescence (ECL-Plus, Amersham).
(§2) Human tumor cells were treated with increasing concentrations of rSema and analyzed for Met tyrosine phosphorylation and downstream activation of mitogen activated protein kinase (MAPK) upon HGF stimulation. […]
Target sequence in this assay (P08581 308-1390, one chain of several): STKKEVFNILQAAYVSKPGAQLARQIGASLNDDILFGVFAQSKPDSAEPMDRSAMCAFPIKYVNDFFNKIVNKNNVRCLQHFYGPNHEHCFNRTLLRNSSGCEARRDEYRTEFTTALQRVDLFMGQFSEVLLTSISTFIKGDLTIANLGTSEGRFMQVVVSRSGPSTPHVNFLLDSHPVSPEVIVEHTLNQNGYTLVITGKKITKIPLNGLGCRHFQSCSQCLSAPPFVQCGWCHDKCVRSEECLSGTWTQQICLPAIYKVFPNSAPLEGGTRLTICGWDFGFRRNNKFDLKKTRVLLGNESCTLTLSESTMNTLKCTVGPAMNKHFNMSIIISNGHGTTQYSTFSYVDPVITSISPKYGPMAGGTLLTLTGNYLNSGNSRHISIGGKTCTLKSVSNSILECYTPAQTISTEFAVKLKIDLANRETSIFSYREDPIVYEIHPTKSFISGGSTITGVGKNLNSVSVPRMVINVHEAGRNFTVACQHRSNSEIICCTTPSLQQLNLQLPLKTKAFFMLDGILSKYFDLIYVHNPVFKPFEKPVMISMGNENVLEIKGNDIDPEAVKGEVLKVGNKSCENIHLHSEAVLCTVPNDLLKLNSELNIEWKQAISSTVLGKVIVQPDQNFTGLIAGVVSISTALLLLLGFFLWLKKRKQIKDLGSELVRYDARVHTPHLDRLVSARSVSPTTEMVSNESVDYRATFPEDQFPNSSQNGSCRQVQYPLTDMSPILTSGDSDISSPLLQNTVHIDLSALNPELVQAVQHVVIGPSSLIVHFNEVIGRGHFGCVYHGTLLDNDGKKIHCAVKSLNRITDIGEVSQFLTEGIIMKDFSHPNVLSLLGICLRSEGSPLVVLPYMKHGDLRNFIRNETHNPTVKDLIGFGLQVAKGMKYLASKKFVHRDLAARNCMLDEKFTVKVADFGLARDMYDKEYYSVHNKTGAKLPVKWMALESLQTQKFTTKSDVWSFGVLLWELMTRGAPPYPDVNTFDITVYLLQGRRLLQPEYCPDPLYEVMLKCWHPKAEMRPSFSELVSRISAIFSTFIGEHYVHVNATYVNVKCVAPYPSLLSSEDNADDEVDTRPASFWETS

MAPK = MAPK phosphorylation in A549 cells (immunoblot); format: cell-based, Human; conditions: A549 cells transfected with Met deletion mutants, vs mock
Protocol: as §1, §2

| endogenous Met tyrosine phosphorylation in transfectants (Met [4]) | Molecule | binding to recombinant EC-Met and Sema domain proteins [1] | binding to Met deletion mutants [2] | gap closure in scrape assay (positive control) (H441 cells) | binding and activation of the Met receptor (Met [3]) | phospho-MAPK in transfectants (MAPK) |
| --- | --- | --- | --- | --- | --- | --- |
|  | HGF: Recombinant HGF, cognate ligand of the Met receptor; positive control | bound to recombinant EC-Met and Sema domain proteins | bound EC-WT alone | closed the gap by Day 1 |  |  |
|  | scHGF (R494E): Single-chain HGF containing an R494E mutation [reference compound] | bound to recombinant EC-Met and Sema domain proteins | only binds EC-WT and not the Sema deleted mutants |  | binds and inhibits activation of the Met receptor |  |
| attenuation | EC-WT: membrane-bound extracellular Met construct containing the Sema domain, V5/His tagged, expressed by transfection (protein, UniProt P08581 25-932, looked up, extracellular domain V5/His tag, membrane-bound) extracellular domain: ECKEALAKSEMNVNMKYQLPNFTAETPIQNVILHEHHIFLGATNYIYVLNEEDLQKVAEYKTGPVLEHPDCFPCQDCSSKANLSGGVWKDNINMALVVDTYYDDQLISCGSVNRGTCQRHVFPHNHTADIQSEVHCIFSPQIEEPSQCPDCVVSALGAKVLSSVKDRFINFFVGNTINSSYFPDHPLHSISVRRLKETKDGFMFLTDQSYIDVLPEFRDSYPIKYVHAFESNNFIYFLTVQRETLDAQTFHTRIIRFCSINSGLHSYMEMPLECILTEKRKKRSTKKEVFNILQAAYVSKPGAQLARQIGASLNDDILFGVFAQSKPDSAEPMDRSAMCAFPIKYVNDFFNKIVNKNNVRCLQHFYGPNHEHCFNRTLLRNSSGCEARRDEYRTEFTTALQRVDLFMGQFSEVLLTSISTFIKGDLTIANLGTSEGRFMQVVVSRSGPSTPHVNFLLDSHPVSPEVIVEHTLNQNGYTLVITGKKITKIPLNGLGCRHFQSCSQCLSAPPFVQCGWCHDKCVRSEECLSGTWTQQICLPAIYKVFPNSAPLEGGTRLTICGWDFGFRRNNKFDLKKTRVLLGNESCTLTLSESTMNTLKCTVGPAMNKHFNMSIIISNGHGTTQYSTFSYVDPVITSISPKYGPMAGGTLLTLTGNYLNSGNSRHISIGGKTCTLKSVSNSILECYTPAQTISTEFAVKLKIDLANRETSIFSYREDPIVYEIHPTKSFISGGSTITGVGKNLNSVSVPRMVINVHEAGRNFTVACQHRSNSEIICCTTPSLQQLNLQLPLKTKAFFMLDGILSKYFDLIYVHNPVFKPFEKPVMISMGNENVLEIKGNDIDPEAVKGEVLKVGNKSCENIHLHSEAVLCTVPNDLLKLNSELNIEWKQAISSTVLGKVIVQPDQNFT |  |  |  |  | attenuation |
